In patent US20180326084A1 (Genmab, published 2018):

Experiments:
[1] = biological target: T1, Homo sapiens AXL-Mus musculus Ig2 domain (p33-AXL-mIg2) (human-mouse chimera, UniProt P30530 26-894); experiment: flow cytometry, 1 µg/mL antibody, transfected HEK293F cells
T1 construct: Expressed in HEK293F cells; also called hsAXL-mmIg2; TH1021-mIg2
T1 chain: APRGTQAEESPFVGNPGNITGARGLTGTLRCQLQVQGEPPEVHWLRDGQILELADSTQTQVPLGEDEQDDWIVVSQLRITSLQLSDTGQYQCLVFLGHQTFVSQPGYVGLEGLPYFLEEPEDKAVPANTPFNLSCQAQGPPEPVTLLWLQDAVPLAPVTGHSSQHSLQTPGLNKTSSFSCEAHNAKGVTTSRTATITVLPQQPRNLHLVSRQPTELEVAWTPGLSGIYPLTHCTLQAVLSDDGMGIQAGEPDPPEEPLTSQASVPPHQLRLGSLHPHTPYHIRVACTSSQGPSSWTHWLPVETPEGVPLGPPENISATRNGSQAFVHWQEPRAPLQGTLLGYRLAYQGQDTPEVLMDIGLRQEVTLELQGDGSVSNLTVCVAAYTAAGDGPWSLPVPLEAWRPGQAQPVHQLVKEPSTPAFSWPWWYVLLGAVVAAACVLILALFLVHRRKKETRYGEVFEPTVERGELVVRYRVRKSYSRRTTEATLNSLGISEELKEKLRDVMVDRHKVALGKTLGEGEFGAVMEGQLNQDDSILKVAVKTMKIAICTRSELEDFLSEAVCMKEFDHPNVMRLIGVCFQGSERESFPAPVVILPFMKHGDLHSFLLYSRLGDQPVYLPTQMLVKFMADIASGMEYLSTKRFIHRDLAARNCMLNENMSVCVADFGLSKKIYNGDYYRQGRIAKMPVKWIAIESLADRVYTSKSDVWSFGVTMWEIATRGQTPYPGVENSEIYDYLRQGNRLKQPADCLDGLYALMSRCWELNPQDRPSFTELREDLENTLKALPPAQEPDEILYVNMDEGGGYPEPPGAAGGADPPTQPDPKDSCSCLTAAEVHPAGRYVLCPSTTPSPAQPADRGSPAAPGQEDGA

[2] = biological target: T2, Homo sapiens AXL-Mus musculus Ig1 domain (p33-AXL-mIg1) (human-mouse chimera, UniProt P30530 8-894); experiment: as above
T2 construct: Expressed in HEK293F cells; also called hsAXL-mmIg1; hsAXL-mmIgl
T2 chain: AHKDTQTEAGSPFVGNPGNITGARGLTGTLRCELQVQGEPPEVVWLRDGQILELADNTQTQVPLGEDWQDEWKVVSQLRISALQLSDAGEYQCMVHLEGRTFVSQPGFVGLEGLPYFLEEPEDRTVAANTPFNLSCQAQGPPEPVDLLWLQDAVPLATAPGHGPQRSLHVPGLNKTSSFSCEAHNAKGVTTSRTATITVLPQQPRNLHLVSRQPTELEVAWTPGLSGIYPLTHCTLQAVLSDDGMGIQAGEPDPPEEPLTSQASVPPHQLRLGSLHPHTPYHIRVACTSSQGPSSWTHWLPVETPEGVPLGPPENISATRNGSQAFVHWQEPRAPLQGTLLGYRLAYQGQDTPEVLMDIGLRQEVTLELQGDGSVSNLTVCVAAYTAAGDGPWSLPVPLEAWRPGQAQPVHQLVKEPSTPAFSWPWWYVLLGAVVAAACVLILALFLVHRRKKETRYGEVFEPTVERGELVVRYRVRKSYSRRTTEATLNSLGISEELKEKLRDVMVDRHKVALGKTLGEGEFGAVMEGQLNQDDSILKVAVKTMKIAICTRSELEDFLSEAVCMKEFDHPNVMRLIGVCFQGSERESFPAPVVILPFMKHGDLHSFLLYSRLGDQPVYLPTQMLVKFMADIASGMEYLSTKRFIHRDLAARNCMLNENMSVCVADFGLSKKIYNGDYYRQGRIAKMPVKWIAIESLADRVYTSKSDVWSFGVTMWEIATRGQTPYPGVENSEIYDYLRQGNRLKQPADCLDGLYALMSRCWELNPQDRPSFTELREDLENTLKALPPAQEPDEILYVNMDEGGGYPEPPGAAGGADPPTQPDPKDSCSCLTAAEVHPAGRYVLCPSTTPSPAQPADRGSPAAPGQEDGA

[3] = biological target: T3, Homo sapiens AXL-Mus musculus FN2 domain (p33-AXL-mFN2) (human-mouse chimera, UniProt P30530 26-894); experiment: as above
T3 construct: Expressed in HEK293F cells; also called hsAXL-mmFN2; TH1021-mFN2
T3 chain: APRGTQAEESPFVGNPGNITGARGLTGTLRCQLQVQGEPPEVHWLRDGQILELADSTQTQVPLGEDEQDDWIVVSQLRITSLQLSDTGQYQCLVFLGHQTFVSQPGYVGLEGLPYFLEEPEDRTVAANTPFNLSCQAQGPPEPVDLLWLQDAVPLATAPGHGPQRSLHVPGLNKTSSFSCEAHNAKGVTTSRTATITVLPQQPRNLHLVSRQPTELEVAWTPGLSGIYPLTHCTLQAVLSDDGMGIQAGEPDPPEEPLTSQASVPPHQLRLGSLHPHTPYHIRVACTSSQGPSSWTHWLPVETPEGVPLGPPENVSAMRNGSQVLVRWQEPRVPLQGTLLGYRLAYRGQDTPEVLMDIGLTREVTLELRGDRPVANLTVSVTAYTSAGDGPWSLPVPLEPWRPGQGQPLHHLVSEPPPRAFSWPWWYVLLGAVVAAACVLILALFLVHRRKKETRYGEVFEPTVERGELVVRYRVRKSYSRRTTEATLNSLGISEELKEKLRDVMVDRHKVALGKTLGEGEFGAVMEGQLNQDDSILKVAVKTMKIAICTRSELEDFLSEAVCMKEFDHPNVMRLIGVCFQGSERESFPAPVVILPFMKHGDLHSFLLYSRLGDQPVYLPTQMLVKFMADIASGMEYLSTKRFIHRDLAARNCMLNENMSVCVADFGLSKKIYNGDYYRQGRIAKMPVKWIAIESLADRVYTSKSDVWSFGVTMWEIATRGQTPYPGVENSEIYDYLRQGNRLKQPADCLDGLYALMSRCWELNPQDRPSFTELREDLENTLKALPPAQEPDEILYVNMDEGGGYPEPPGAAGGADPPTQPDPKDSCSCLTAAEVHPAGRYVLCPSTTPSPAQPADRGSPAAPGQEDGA

human AXL (full length) = biological target: T4, human AXL (full length) (human, UniProt P30530 26-894); experiment: flow cytometry, HEK293T cells transiently transfected with human AXL
T4 construct: also called TH1021-AXL; TH1021-hAXL

[4] = biological target: T5, Homo sapiens AXL-Mus musculus FN1 domain (p33-AXL-mFN1) (human-mouse chimera, UniProt P30530 26-894); experiment: flow cytometry, 1 µg/mL antibody, transfected HEK293F cells
T5 construct: Expressed in HEK293F cells; also called hsAXL-mmFN1; TH1021-mFN1
T5 chain: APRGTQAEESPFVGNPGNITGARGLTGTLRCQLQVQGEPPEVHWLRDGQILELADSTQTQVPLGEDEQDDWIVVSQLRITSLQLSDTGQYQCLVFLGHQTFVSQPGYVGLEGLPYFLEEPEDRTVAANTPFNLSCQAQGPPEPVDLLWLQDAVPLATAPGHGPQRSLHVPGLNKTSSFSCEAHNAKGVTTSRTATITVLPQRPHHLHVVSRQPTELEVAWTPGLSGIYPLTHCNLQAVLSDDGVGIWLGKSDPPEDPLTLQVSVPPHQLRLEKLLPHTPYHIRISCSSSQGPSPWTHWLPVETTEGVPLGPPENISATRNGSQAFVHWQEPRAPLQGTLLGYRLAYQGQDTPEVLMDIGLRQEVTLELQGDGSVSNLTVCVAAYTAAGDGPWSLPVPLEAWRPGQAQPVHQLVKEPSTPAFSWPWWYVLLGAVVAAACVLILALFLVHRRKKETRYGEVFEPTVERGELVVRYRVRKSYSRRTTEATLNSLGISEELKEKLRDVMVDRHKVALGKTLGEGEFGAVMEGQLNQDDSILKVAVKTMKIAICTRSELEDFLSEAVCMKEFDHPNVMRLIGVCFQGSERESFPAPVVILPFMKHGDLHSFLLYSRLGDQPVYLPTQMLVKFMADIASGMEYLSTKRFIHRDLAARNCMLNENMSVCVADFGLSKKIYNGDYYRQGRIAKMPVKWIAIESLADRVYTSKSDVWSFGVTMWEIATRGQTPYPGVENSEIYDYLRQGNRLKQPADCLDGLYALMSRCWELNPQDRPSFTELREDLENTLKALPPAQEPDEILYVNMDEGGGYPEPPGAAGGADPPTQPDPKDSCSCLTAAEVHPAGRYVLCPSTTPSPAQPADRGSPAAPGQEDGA

B1: IgG1-AXL-154 (antibody, V domains shown)
VH: EVQLLDSGGGLVQPGGSLRLSCAASGFTFSSYAMSWVRQAPGKGLEWVSAISIGGGNAYYADSVKGRFTISRDNSKNTLYLQMNSLRAADTAVYYCAKPGFIMVRGPLDYWGQGALVTVSS
VL: not shown
Question: What does the source list for B1?
Answer: binding result [1]: binds; binding result [2]: binds; binding result [3]: binds

B2: IgG1-AXL-148-A-vcDuo3 (antibody, V domains shown)
VH: EVQLLESGGGLVQPGGSLRLSCAASGFTFSSYAMTWVRQAPGKGLEWVSAISISGGSTFYADSVKGRFTISRDNSKNTLYLQMNSLRAEDTAVYYCRGYSGYVYDAFDFWGQGTMVTVSS
VL: DIQMTQSPSSLSASVGDRVTITCRASQGISNWLAWYQQKPEKAPKSLIYAASSLQSGVPSRFSGSGSGTDFTLTISSLQPEDFATYYCQQYNSYPLTFGGGTKVEIK
modifications: drug-linker on lysine(s); chain and position not given
notes: also called IgG1-AXL-148-vcDuostatin3; IgG1-AXL-148-vcDuo3
Question: Does B2 bind (human AXL (full length))?
Answer: binds

B3: IgG1-AXL-171 (antibody, V domains shown)
VH: EVQLLESGGGLVQPGGSLRLSCAASGFTFSSYAMSWVRQAPGKGLEWVSDISVSGGSTYYADSVKGRFTISRDNSKNTLYLQMNSLRAEDTAVYYCAKEGYIWFGESLSYAFDIWGQGTMVTVSS
VL: not shown
Question: Does B3 bind [2]?
Answer: binds

Question: Does B3 bind [4]?
Answer: binds

Question: Does B3 bind [3]?
Answer: binds

B4: IgG1-AXL-183-A-vcDuo3 (antibody, V domains shown)
VH: QVQLQQWGAGLLKPSETLSLTCAVYGGSFSGYYWSWIRQPPGKGLEWIGEINQSGSTNYNPSLKSRVTISVDTSKNQFSLKLSSVTAADTSVYYCASGNWDHFFDYWGQGTLVTVSS
VL: DIQMTQSPSSVSASVGDRVTITCRASQGISSWLAWYQHKPGKAPKLLIYATSSLQSGVTSRFSGSGSGTDFTLTISSLQPEDFATYYCQQAKSFPWTFGQGTKVEIK
modifications: drug-linker on lysine(s); chain and position not given
notes: also called IgG1-AXL-183-vcDuostatin3; IgG1-AXL-183-vcDuo3
Question: B4 was tested. Which “EC50 (read off the curve)” value (human AXL (full length)) did it give?
Answer: ~0.2 µg/mL
